Test results taken from US20140087995A1 (published 2014).
Numbered stars: 1 amine (or outer) side, 2 acyl side, 3 side chain; on linkers, the order of the positions; unused ones are H or OH. Bridge positions count the residues as written; N and C are the ends. Side chains are listed from the residue outwards. Ends that are not written are not given here. * marks the point of attachment. C20 diacid = O=C(O)CCCCCCCCCCCCCCCCCCC(=O)*; γGlu = O=C(O)[C@H](CCC(=O)[*:2])N[*:1]

T1: human amylin receptor (human, UniProt P30988 25-474; O60896 24-148, limits assumed)
T1 construct: whole, on cells; Calcitonin receptor plus RAMP-3 gives the amylin 3(a) receptor; membranes of Amylin 3(a)/CRE-luc cells were used; also called hAmylin-R; hAmylinR
T1 sequence (looked up) 1: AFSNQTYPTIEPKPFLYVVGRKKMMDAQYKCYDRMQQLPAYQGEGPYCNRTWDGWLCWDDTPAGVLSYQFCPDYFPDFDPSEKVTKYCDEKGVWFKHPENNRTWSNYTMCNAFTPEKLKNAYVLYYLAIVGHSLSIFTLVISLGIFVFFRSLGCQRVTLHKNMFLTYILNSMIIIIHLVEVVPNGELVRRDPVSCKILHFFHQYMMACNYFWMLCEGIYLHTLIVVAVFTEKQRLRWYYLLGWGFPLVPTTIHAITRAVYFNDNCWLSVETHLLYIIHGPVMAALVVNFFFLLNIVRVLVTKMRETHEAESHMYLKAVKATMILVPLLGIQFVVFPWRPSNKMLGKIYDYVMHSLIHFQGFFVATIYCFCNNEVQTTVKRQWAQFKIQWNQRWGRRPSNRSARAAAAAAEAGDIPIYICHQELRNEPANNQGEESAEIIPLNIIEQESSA
T1 sequence (looked up) 2: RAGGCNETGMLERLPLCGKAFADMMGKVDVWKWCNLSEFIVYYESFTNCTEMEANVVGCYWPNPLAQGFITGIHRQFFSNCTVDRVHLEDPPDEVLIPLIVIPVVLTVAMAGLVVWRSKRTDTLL

B1: N^ε1-[(4S)-4-carboxy-4-[[(4S)-4-carboxy-4-(19-carboxynonadecanoylamino)butanoyl]amino]butanoyl]-[Glu14,Arg17,Pro21,Pro27,Pro34,Arg35]-h-amylin (peptide)
peptide: K([γGlu-γGlu-C20 diacid])CNTATCATQRLAEFLRHSSPNFGAIPSSTNVGPRTY-NH2
modifications: disulfide 2-7; N-terminus assumed
SMILES: CC[C@H](C)[C@H](NC(=O)[C@H](C)NC(=O)CNC(=O)[C@H](Cc1ccccc1)NC(=O)[C@H](CC(N)=O)NC(=O)[C@@H]1CCCN1C(=O)[C@H](CO)NC(=O)[C@H](CO)NC(=O)[C@H](Cc1c[nH]cn1)NC(=O)[C@H](CCCNC(=N)N)NC(=O)[C@H](CC(C)C)NC(=O)[C@H](Cc1ccccc1)NC(=O)[C@H](CCC(=O)O)NC(=O)[C@H](C)NC(=O)[C@H](CC(C)C)NC(=O)[C@H](CCCNC(=N)N)NC(=O)[C@H](CCC(N)=O)NC(=O)[C@@H](NC(=O)[C@H](C)NC(=O)[C@@H]1CSSC[C@H](NC(=O)[C@@H](N)CCCCNC(=O)CC[C@H](NC(=O)CC[C@H](NC(=O)CCCCCCCCCCCCCCCCCCC(=O)O)C(=O)O)C(=O)O)C(=O)N[C@@H](CC(N)=O)C(=O)N[C@@H]([C@@H](C)O)C(=O)N[C@@H](C)C(=O)N[C@@H]([C@@H](C)O)C(=O)N1)[C@@H](C)O)C(=O)N1CCC[C@H]1C(=O)N[C@@H](CO)C(=O)N[C@@H](CO)C(=O)N[C@H](C(=O)N[C@@H](CC(N)=O)C(=O)N[C@H](C(=O)NCC(=O)N1CCC[C@H]1C(=O)N[C@@H](CCCNC(=N)N)C(=O)N[C@H](C(=O)N[C@@H](Cc1ccc(O)cc1)C(N)=O)[C@@H](C)O)C(C)C)[C@@H](C)O
notes: also called 14E, 17R, 21P, 27P, 34P, 35R
B2: N^ε1-[(4S)-4-carboxy-4-[[(4S)-4-carboxy-4-(19-carboxynonadecanoylamino)butanoyl]amino]butanoyl]-[Glu14,Arg17,Pro21,Pro27,Pro34,Glu35]-h-amylin (peptide)
peptide: K([γGlu-γGlu-C20 diacid])CNTATCATQRLAEFLRHSSPNFGAIPSSTNVGPETY-NH2
modifications: disulfide 2-7; N-terminus assumed
SMILES: CC[C@H](C)[C@H](NC(=O)[C@H](C)NC(=O)CNC(=O)[C@H](Cc1ccccc1)NC(=O)[C@H](CC(N)=O)NC(=O)[C@@H]1CCCN1C(=O)[C@H](CO)NC(=O)[C@H](CO)NC(=O)[C@H](Cc1c[nH]cn1)NC(=O)[C@H](CCCNC(=N)N)NC(=O)[C@H](CC(C)C)NC(=O)[C@H](Cc1ccccc1)NC(=O)[C@H](CCC(=O)O)NC(=O)[C@H](C)NC(=O)[C@H](CC(C)C)NC(=O)[C@H](CCCNC(=N)N)NC(=O)[C@H](CCC(N)=O)NC(=O)[C@@H](NC(=O)[C@H](C)NC(=O)[C@@H]1CSSC[C@H](NC(=O)[C@@H](N)CCCCNC(=O)CC[C@H](NC(=O)CC[C@H](NC(=O)CCCCCCCCCCCCCCCCCCC(=O)O)C(=O)O)C(=O)O)C(=O)N[C@@H](CC(N)=O)C(=O)N[C@@H]([C@@H](C)O)C(=O)N[C@@H](C)C(=O)N[C@@H]([C@@H](C)O)C(=O)N1)[C@@H](C)O)C(=O)N1CCC[C@H]1C(=O)N[C@@H](CO)C(=O)N[C@@H](CO)C(=O)N[C@H](C(=O)N[C@@H](CC(N)=O)C(=O)N[C@H](C(=O)NCC(=O)N1CCC[C@H]1C(=O)N[C@@H](CCC(=O)O)C(=O)N[C@H](C(=O)N[C@@H](Cc1ccc(O)cc1)C(N)=O)[C@@H](C)O)C(C)C)[C@@H](C)O
notes: also called 14E, 17R, 21P, 27P, 34P, 35E
B3: N^ε1-[(4S)--4-carboxy-4-(19-carboxynonadecanoylamino)butanoyl]-[Glu14,Arg17,Pro21,Pro27,Pro37]-h-amylin (peptide)
peptide: K([γGlu-C20 diacid])CNTATCATQRLAEFLRHSSPNFGAIPSSTNVGSNTP-NH2
modifications: disulfide 2-7; N-terminus assumed
SMILES: CC[C@H](C)[C@H](NC(=O)[C@H](C)NC(=O)CNC(=O)[C@H](Cc1ccccc1)NC(=O)[C@H](CC(N)=O)NC(=O)[C@@H]1CCCN1C(=O)[C@H](CO)NC(=O)[C@H](CO)NC(=O)[C@H](Cc1c[nH]cn1)NC(=O)[C@H](CCCNC(=N)N)NC(=O)[C@H](CC(C)C)NC(=O)[C@H](Cc1ccccc1)NC(=O)[C@H](CCC(=O)O)NC(=O)[C@H](C)NC(=O)[C@H](CC(C)C)NC(=O)[C@H](CCCNC(=N)N)NC(=O)[C@H](CCC(N)=O)NC(=O)[C@@H](NC(=O)[C@H](C)NC(=O)[C@@H]1CSSC[C@H](NC(=O)[C@@H](N)CCCCNC(=O)CC[C@H](NC(=O)CCCCCCCCCCCCCCCCCCC(=O)O)C(=O)O)C(=O)N[C@@H](CC(N)=O)C(=O)N[C@@H]([C@@H](C)O)C(=O)N[C@@H](C)C(=O)N[C@@H]([C@@H](C)O)C(=O)N1)[C@@H](C)O)C(=O)N1CCC[C@H]1C(=O)N[C@@H](CO)C(=O)N[C@@H](CO)C(=O)N[C@H](C(=O)N[C@@H](CC(N)=O)C(=O)N[C@H](C(=O)NCC(=O)N[C@@H](CO)C(=O)N[C@@H](CC(N)=O)C(=O)N[C@H](C(=O)N1CCC[C@H]1C(N)=O)[C@@H](C)O)C(C)C)[C@@H](C)O
notes: also called 14E, 17R, 21P, 27P, 37P
B4: N^ε1-[(4S)-4-carboxy-4-[[(4S)-4-carboxy-4-(19-carboxynonadecanoylamino)butanoyl]amino]butanoyl]-[Glu14,Arg17,Pro21,Pro27,Pro37]-h-amylin (peptide)
peptide: K([γGlu-γGlu-C20 diacid])CNTATCATQRLAEFLRHSSPNFGAIPSSTNVGSNTP-NH2
modifications: disulfide 2-7; N-terminus assumed
SMILES: CC[C@H](C)[C@H](NC(=O)[C@H](C)NC(=O)CNC(=O)[C@H](Cc1ccccc1)NC(=O)[C@H](CC(N)=O)NC(=O)[C@@H]1CCCN1C(=O)[C@H](CO)NC(=O)[C@H](CO)NC(=O)[C@H](Cc1c[nH]cn1)NC(=O)[C@H](CCCNC(=N)N)NC(=O)[C@H](CC(C)C)NC(=O)[C@H](Cc1ccccc1)NC(=O)[C@H](CCC(=O)O)NC(=O)[C@H](C)NC(=O)[C@H](CC(C)C)NC(=O)[C@H](CCCNC(=N)N)NC(=O)[C@H](CCC(N)=O)NC(=O)[C@@H](NC(=O)[C@H](C)NC(=O)[C@@H]1CSSC[C@H](NC(=O)[C@@H](N)CCCCNC(=O)CC[C@H](NC(=O)CC[C@H](NC(=O)CCCCCCCCCCCCCCCCCCC(=O)O)C(=O)O)C(=O)O)C(=O)N[C@@H](CC(N)=O)C(=O)N[C@@H]([C@@H](C)O)C(=O)N[C@@H](C)C(=O)N[C@@H]([C@@H](C)O)C(=O)N1)[C@@H](C)O)C(=O)N1CCC[C@H]1C(=O)N[C@@H](CO)C(=O)N[C@@H](CO)C(=O)N[C@H](C(=O)N[C@@H](CC(N)=O)C(=O)N[C@H](C(=O)NCC(=O)N[C@@H](CO)C(=O)N[C@@H](CC(N)=O)C(=O)N[C@H](C(=O)N1CCC[C@H]1C(N)=O)[C@@H](C)O)C(C)C)[C@@H](C)O
notes: as for B3
B5: N^ε1-[(4S)-4-carboxy-4-[[(4S)-4-carboxy-4-(19-carboxynonadecanoylamino)butanoyl]amino]butanoyl]-[His14,Arg17,Pro21,Pro27]-h-amylin (peptide)
peptide: K([γGlu-γGlu-C20 diacid])CNTATCATQRLAHFLRHSSPNFGAIPSSTNVGSNTY-NH2
modifications: disulfide 2-7; N-terminus assumed
SMILES: CC[C@H](C)[C@H](NC(=O)[C@H](C)NC(=O)CNC(=O)[C@H](Cc1ccccc1)NC(=O)[C@H](CC(N)=O)NC(=O)[C@@H]1CCCN1C(=O)[C@H](CO)NC(=O)[C@H](CO)NC(=O)[C@H](Cc1c[nH]cn1)NC(=O)[C@H](CCCNC(=N)N)NC(=O)[C@H](CC(C)C)NC(=O)[C@H](Cc1ccccc1)NC(=O)[C@H](Cc1c[nH]cn1)NC(=O)[C@H](C)NC(=O)[C@H](CC(C)C)NC(=O)[C@H](CCCNC(=N)N)NC(=O)[C@H](CCC(N)=O)NC(=O)[C@@H](NC(=O)[C@H](C)NC(=O)[C@@H]1CSSC[C@H](NC(=O)[C@@H](N)CCCCNC(=O)CC[C@H](NC(=O)CC[C@H](NC(=O)CCCCCCCCCCCCCCCCCCC(=O)O)C(=O)O)C(=O)O)C(=O)N[C@@H](CC(N)=O)C(=O)N[C@@H]([C@@H](C)O)C(=O)N[C@@H](C)C(=O)N[C@@H]([C@@H](C)O)C(=O)N1)[C@@H](C)O)C(=O)N1CCC[C@H]1C(=O)N[C@@H](CO)C(=O)N[C@@H](CO)C(=O)N[C@H](C(=O)N[C@@H](CC(N)=O)C(=O)N[C@H](C(=O)NCC(=O)N[C@@H](CO)C(=O)N[C@@H](CC(N)=O)C(=O)N[C@H](C(=O)N[C@@H](Cc1ccc(O)cc1)C(N)=O)[C@@H](C)O)C(C)C)[C@@H](C)O
notes: also called 14H, 17R, 21P, 27P
B6: N^ε1-[(4S)-4-carboxy-4-[[(4S)-4-carboxy-4-(19-carboxynonadecanoylamino)butanoyl]amino]butanoyl]-[Ser14,Arg17,Pro21,Pro27,Pro34,Glu35]-h-amylin (peptide)
peptide: K([γGlu-γGlu-C20 diacid])CNTATCATQRLASFLRHSSPNFGAIPSSTNVGPETY-NH2
modifications: disulfide 2-7; N-terminus assumed
SMILES: CC[C@H](C)[C@H](NC(=O)[C@H](C)NC(=O)CNC(=O)[C@H](Cc1ccccc1)NC(=O)[C@H](CC(N)=O)NC(=O)[C@@H]1CCCN1C(=O)[C@H](CO)NC(=O)[C@H](CO)NC(=O)[C@H](Cc1c[nH]cn1)NC(=O)[C@H](CCCNC(=N)N)NC(=O)[C@H](CC(C)C)NC(=O)[C@H](Cc1ccccc1)NC(=O)[C@H](CO)NC(=O)[C@H](C)NC(=O)[C@H](CC(C)C)NC(=O)[C@H](CCCNC(=N)N)NC(=O)[C@H](CCC(N)=O)NC(=O)[C@@H](NC(=O)[C@H](C)NC(=O)[C@@H]1CSSC[C@H](NC(=O)[C@@H](N)CCCCNC(=O)CC[C@H](NC(=O)CC[C@H](NC(=O)CCCCCCCCCCCCCCCCCCC(=O)O)C(=O)O)C(=O)O)C(=O)N[C@@H](CC(N)=O)C(=O)N[C@@H]([C@@H](C)O)C(=O)N[C@@H](C)C(=O)N[C@@H]([C@@H](C)O)C(=O)N1)[C@@H](C)O)C(=O)N1CCC[C@H]1C(=O)N[C@@H](CO)C(=O)N[C@@H](CO)C(=O)N[C@H](C(=O)N[C@@H](CC(N)=O)C(=O)N[C@H](C(=O)NCC(=O)N1CCC[C@H]1C(=O)N[C@@H](CCC(=O)O)C(=O)N[C@H](C(=O)N[C@@H](Cc1ccc(O)cc1)C(N)=O)[C@@H](C)O)C(C)C)[C@@H](C)O
notes: also called 14S, 17R, 21P, 27P, 34P, 35E
B7: N^ε1-[(4S)-4-carboxy-4-[[(4S)-4-carboxy-4-(19-carboxynonadecanoylamino)butanoyl]amino]butanoyl]-[Glu14,Arg17,Pro21,Pro31,Pro34,Glu35]-h-amylin (peptide)
peptide: K([γGlu-γGlu-C20 diacid])CNTATCATQRLAEFLRHSSPNFGAILSSTPVGPETY-NH2
modifications: disulfide 2-7 (inferred)
notes: also called 14E, 17R, 21P, 31P, 34P, 35E

The binders below were run against T1, human amylin receptor (assay: SPA competition binding, displacement of 125I-rat amylin from membranes with human amylin 3(a) receptor (Assay V)).
Method in brief: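 Membranes from BHK Amylin 3(a)/CRE-luc cells (35 ng/μL final) were mixed with SPA beads and test compounds in 50 mM Hepes pH 7.4 with 1 mM CaCl2, 5 mM MgCl₂, 0.1% OA and 0.02% Tween20. Incubation ran 120 min at 25° C with shaking; IC₅₀ came from one-site competition fitting.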

Binder	IC50
B1	0.326 nM
B2	0.121 nM
B3	0.142 nM
B4	0.264 nM
B5	0.179 nM
B6	0.076 nM
B7	0.069 nM
